This data set can be described thus: protein stability index of a GFP-peptide fusion (GPS, HEK-293T) (PSI 1-6); higher = more stable.
The mark [1] stands for this setting: treatment: DMSO, c terminus: a fixed tail appended.
The mark [2] stands for this setting: treatment: MLN4924 1 uM, 8 h, c terminus: a fixed tail appended.

± gives the standard deviation.
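Note: 24-mer peptide tiles fused after GFP, lentivirally expressed, FACS-sorted into six equal bins by GFP/DsRed ratio, decoded by Illumina sequencing, PSI is the read-weighted mean bin number.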

RGPRMCRFIRERDRAVNDYPSLYY [CDC25B] displayed a protein stability index under setting [1] of 2.17 ± 0.27 and a protein stability index under setting [2] of 2.12 ± 0.39.

For the sequence FWKKYRTFWKEDKAFWKEDNALWE [CCDC70], the protein stability index runs as follows: under setting [1], 2.54 ± 0.49; under setting [2], 2.26 ± 0.36.

QQIAMDPEEVKSLDSNGAGEKSEN [BCL2L13]: the protein stability index was determined as 5.6 ± 0.45 under setting [1] and 5.63 ± 0.3 under setting [2].

As to SHGYDMSTFIRRYSRYLNEKAFSY [SNAP91], the protein stability index is, setting by setting: under setting [1], 2.17 ± 0.24; under setting [2], 2.3 ± 0.52.

On to YGHDYPRAAYQQVIQPALPGQPLP [TRAF3IP2], for which the protein stability index is, setting by setting: under setting [1], 2.55 ± 0.71; under setting [2], 3.25 ± 0.69.

For the sequence GCQVSPEGYAHLTHLLMGLASGRI [HDAC6], the protein stability index reads like this: under setting [1], 2.46 ± 0.89; under setting [2], 2.57 ± 0.53.

On to TGRHYWEVDVQEAGAGWWVGAAYA [TRIM14], for which the protein stability index reads like this: under setting [1], 2.62 ± 0.8; under setting [2], 2.58 ± 0.82.

With PASPNPFVHELHLSRLQRVKFCLL [LPCAT4], the protein stability index was 2.56 ± 0.6 under setting [1] and 2.51 ± 0.3 under setting [2].

For the sequence MELGGHWDMNSAPRLVSETAERKQ [MFSD9], the protein stability index runs as follows: under setting [1], 4.98 ± 0.11; under setting [2], 4.98 ± 0.2.

Turning to KIIAVGVIDILPNCVSSVYLYYDP [ATE1], the protein stability index is, setting by setting: under setting [1], 2.62 ± 0.42; under setting [2], 3.19 ± 0.43.

Turning to LQMEVCRLKKEEEDRIVTQNRVFA [CEP70], the protein stability index amounted to 3.98 ± 0.31 under setting [1] and 4.01 ± 0.055 under setting [2].

For PWSLFDVLVEKYGWPHEDAAQFTD [SRPK2], the protein stability index by setting is: under setting [1], 2.61 ± 0.28; under setting [2], 2.88 ± 0.51.

On to PLPWSECPVVRNGSVAVVEAECEK [SLC6A17], for which the protein stability index under setting [1] amounted to 5.443 ± 0.034 and the protein stability index under setting [2] is 5.3 ± 0.29.

Take DPEDFEDAWKRPDALPGQSKRLAV [TLE6]: the protein stability index runs as follows: under setting [1], 5.08 ± 0.18; under setting [2], 4.83 ± 0.29.

In the case of KVTISNRLVSSPCCIVTSTYGWTA [HSP90AB1], the protein stability index under setting [1] was determined as 2.84 ± 0.9 and the protein stability index under setting [2] is 2.51 ± 0.37.

On to ERLERAVSDRLAPGAPRGNPPKAS [MYCL], for which the protein stability index is, setting by setting: under setting [1], 4.84 ± 0.44; under setting [2], 5.23 ± 0.26.

For the sequence HALRKKQLKRQKRDYIHSLKLLNV [FAM9B], the protein stability index runs as follows: under setting [1], 2.6 ± 0.42; under setting [2], 2.84 ± 0.27.

On to FWDFAQGPLLDSLYWTKWYNNQSL [PKD2L1], for which the protein stability index under setting [1] worked out at 2.3 ± 0.77 and the protein stability index under setting [2] is 2.76 ± 0.94.

Regarding YAHQMVRTDSREQKLDAFLQPLSK [MLH1], the protein stability index is, setting by setting: under setting [1], 2.98 ± 0.3; under setting [2], 3.35 ± 0.35.

On to RFYLPLLIHQHEKVIYLDDDVIVQ [GLT8D2], for which the protein stability index under setting [1] stood at 2.32 ± 0.56 and the protein stability index under setting [2] was determined as 1.97 ± 0.25.

Take QRLVEALEENELTSLAEDLLGLTD [TRADD]: the protein stability index is, setting by setting: under setting [1], 4.28 ± 0.14; under setting [2], 4.28 ± 0.17.

Consider LLGFLRIRVRGQRASRLQAPVLVA [LPCAT4], for which the protein stability index under setting [1] was found to be 2.37 ± 0.52 and the protein stability index under setting [2] was 2.12 ± 0.29.

As for LEGEDAHLSSQQASGQSYSSREVF [KRT16], the protein stability index worked out at 5.04 ± 0.15 under setting [1] and 5.02 ± 0.1 under setting [2].

For the sequence AALKQAIKDKEAPLHVAQTRLYLR [TEKT4], the protein stability index reads like this: under setting [1], 3.06 ± 0.15; under setting [2], 3.07 ± 0.18.

Take PLLPSDLRRTGCAALRIANCKLFR [GAN]: the protein stability index under setting [1] worked out at 2.29 ± 0.34 and the protein stability index under setting [2] came to 2.35 ± 0.24.

Take KESNANPIFMRKDTKMSFQWRIRN [DPCD]: the protein stability index under setting [1] was 2.83 ± 0.15 and the protein stability index under setting [2] is 3.01 ± 0.24.

Regarding GIEHAQCVPPSEFSEPSFITESYQ [ETS1], the protein stability index under setting [1] turned out to be 4.44 ± 0.12 and the protein stability index under setting [2] was 4.15 ± 0.3.

MAVAQQLRAESDFEQLPDDVAISA [NCF4] came in with a protein stability index under setting [1] of 4.89 ± 0.27 and a protein stability index under setting [2] of 4.88 ± 0.19.

As to QMLLNVEANSAKVQEDLEAEFQSL [FSD1], the protein stability index was 4.92 ± 0.21 under setting [1] and 4.96 ± 0.2 under setting [2].

Turning to EVLRMCVAVKKKLQLYFWKDREFH [VPS39], the protein stability index stood at 2.49 ± 0.34 under setting [1] and 2.55 ± 0.34 under setting [2].

With SLIEDSQALHKRPKLDSEYYCFG [LURAP1L], the protein stability index is, setting by setting: (treatment: DMSO, c terminus: native) 2.57 ± 0.4; (treatment: MLN4924 1 uM, 8 h, c terminus: native) 3.11 ± 0.45.

In turn, LAIDAIHQLGFIHRDIKPDNLLLD [STK38L] had a protein stability index under setting [1] of 2.23 ± 0.35 and a protein stability index under setting [2] of 2.04 ± 0.31.

For the sequence TFKSLSHIDPDVLYPSLNVTSFDS [ALG2], the protein stability index by setting is: under setting [1], 2.77 ± 0.14; under setting [2], 2.92 ± 0.19.

For KVALEPQLWELGKVLRKAGLSAGY [LPCAT4], the protein stability index is, setting by setting: under setting [1], 2.27 ± 0.26; under setting [2], 2.21 ± 0.36.

For GSDAEQSTSGQPYPTSDQEGDPGS [LCOR], the protein stability index under setting [1] was determined as 5.53 ± 0.35 and the protein stability index under setting [2] stood at 5.59 ± 0.28.

In the case of EYAWCLVRSKYNDDIRKGIVLLEE [FIS1], the protein stability index runs as follows: under setting [1], 2.13 ± 0.43; under setting [2], 2.03 ± 0.26.

As for SPEVLTPQLSPGSGTPQAGTPSPS [RTN2], the protein stability index is, setting by setting: under setting [1], 5.39 ± 0.31; under setting [2], 5.45 ± 0.2.

For the sequence QHLKSKALRERWLLEGTPSSASEG [PALM], the protein stability index by setting is: under setting [1], 4.25 ± 0.13; under setting [2], 4.33 ± 0.2.

LSKSRTDYQPTQAGRLMRPSVKYL [RNF180]: the protein stability index was found to be 3.19 ± 0.25 under setting [1] and 3.11 ± 0.49 under setting [2].

On to MGREKCHQYWPAERSARYQYFVVD [PTPRD], for which the protein stability index by setting is: under setting [1], 2.3 ± 0.34; under setting [2], 2.33 ± 0.14.

Consider QELLKRTIMQAVSQIRLNREHKET [TEKT4], for which the protein stability index was 2.63 ± 0.17 under setting [1] and 2.79 ± 0.36 under setting [2].

For the sequence QGPQGREGLAFLVSCPEGRADCAS [PWWP2B], the protein stability index amounted to 3.77 ± 0.33 under setting [1] and 3.95 ± 0.26 under setting [2].

As for AFHRKSHSLDLNISEKLTLLPTLY [RNF180], the protein stability index under setting [1] is 2.34 ± 0.39 and the protein stability index under setting [2] is 2.1 ± 0.34.

As to PICVQIPWDKNPEALAKWAEGRTG [CRY1], the protein stability index runs as follows: under setting [1], 3.51 ± 0.35; under setting [2], 3.6 ± 0.24.

Consider TGSKEKGLTKKRTKVQKKSLLLKK [NOP53], for which the protein stability index is, setting by setting: under setting [1], 4.48 ± 0.24; under setting [2], 4.72 ± 0.22.

The sequence KLMKEILDKKVEKVTISNRLVSSP [HSP90AB1] came in with a protein stability index under setting [1] of 2.81 ± 0.25 and a protein stability index under setting [2] of 2.84 ± 0.42.

LHRLFREKSLDQLKSISAEEILTL [PHTF1]: the protein stability index was 2.11 ± 0.45 under setting [1] and 2.25 ± 0.47 under setting [2].

Regarding FEAAFGTTPSTSSSSSFDPSVFDG [SNAP91], the protein stability index under setting [1] is 4.61 ± 0.12 and the protein stability index under setting [2] stood at 4.53 ± 0.22.

Take SGEFGSVFKCVKRLDGCIYAIKRS [WEE1]: the protein stability index was 2.31 ± 0.58 under setting [1] and 2.65 ± 0.12 under setting [2].

Take YKPVVLLQGLSLIVTWFMLLYAQG [SLC19A2]: the protein stability index came out at 2.94 ± 0.42 under setting [1] and 3.02 ± 0.29 under setting [2].

Under setting [1], GSKVTCRGLLEYFKAYIKIYQGED [ATL3] registered a protein stability index of 2.31 ± 0.14.

As to LVPALRLPGRKLVSSAVSPSIIPQ [INTS4], the protein stability index reads like this: under setting [1], 2.48 ± 0.31; under setting [2], 2.46 ± 0.26.

Consider PRMNEVYTRLGEMNNAVRNLQELL [CEP70], for which the protein stability index by setting is: under setting [1], 3.78 ± 0.18; under setting [2], 3.86 ± 0.23.

Sequence LRVISDEGGWWKAISLSTGRESYI [SLA] had a protein stability index under setting [2] of 1.88 ± 0.22.

IKWLKEAEEESSGGEEEDEDENIE [EIF5] displayed a protein stability index under setting [1] of 5.41 ± 0.14 and a protein stability index under setting [2] of 5.49 ± 0.25.

For the sequence DPLSLLDDSKFPIEDTPLVPVSFI [PCDHGA10], the protein stability index runs as follows: under setting [1], 2.85 ± 0.49; under setting [2], 2.97 ± 0.3.

Take AQKISKGADPKSVVCAFFKQGQCT [ZC3H15]: the protein stability index is, setting by setting: under setting [1], 3.32 ± 0.34; under setting [2], 3.31 ± 0.26.

For the sequence VGKGEILASLQDGAAESPYGHPAG [RAB40B], the protein stability index by setting is: under setting [1], 4.66 ± 0.24; under setting [2], 4.76 ± 0.2.

With TKLEERSRVKCDQYWPSRGTETHG [PTPRD], the protein stability index amounted to 3.97 ± 0.14 under setting [1] and 3.71 ± 0.54 under setting [2].

Sequence EDEGVDLSEGSSNEDEDLGPCEGP [SPANXN3] yielded a protein stability index under setting [1] of 5.39 ± 0.44 and a protein stability index under setting [2] of 5.41 ± 0.23.

In the case of RLLSYRGERVAARGYWGDIATGPF [DNAAF3], the protein stability index under setting [1] came to 2.18 ± 0.046 and the protein stability index under setting [2] stood at 2.18 ± 0.34.

Consider AVVKGIQSSGKVMYFSSLFPYVVL [SLC6A17], for which the protein stability index is, setting by setting: under setting [1], 3.09 ± 0.49; under setting [2], 2.51 ± 0.028.

Regarding DNSTMGYMMAKKHLEINPDHPIVE [HSP90AB1], the protein stability index worked out at 4.21 ± 0.21 under setting [1] and 4.05 ± 0.28 under setting [2].

Turning to QVPEEMSRCRNSYTEQELKPLTLE [DLC1], the protein stability index runs as follows: under setting [1], 4.48 ± 0.26; under setting [2], 4.46 ± 0.29.

As to SGTQYVSTRQTQSWTAVTPQQTWA [C18orf25], the protein stability index turned out to be 2.7 ± 0.29 under setting [1] and 3 ± 0.51 under setting [2].

EAWRLVEEGIVSPSDLDLVMSEGL [CRYL1] displayed a protein stability index under setting [1] of 3.91 ± 0.058 and a protein stability index under setting [2] of 3.9 ± 0.16.

For the sequence ISQMDSDQFIPIWTVANMEEIKKL [LARP4], the protein stability index is 3.25 ± 0.19 under setting [1] and 3.32 ± 0.16 under setting [2].

NAGISFSVKKQGETVADVRTLPNA [MLH1]: the protein stability index runs as follows: under setting [1], 4.37 ± 0.46; under setting [2], 4.11 ± 0.1.

For FQAHRDKYEKLRGDVAIKLKFLEE [ARFIP2], the protein stability index by setting is: under setting [1], 2.89 ± 0.45; under setting [2], 3.15 ± 0.25.

Consider TGTYQRAILQNHTDFKDKIVLDVG [CARM1], for which the protein stability index by setting is: under setting [1], 3.34 ± 0.092; under setting [2], 3.35 ± 0.27.

For EKDQEQVVMNLDSRLLIFPLYICC [GMCL1], the protein stability index was found to be 2.74 ± 0.75 under setting [1] and 2.74 ± 0.67 under setting [2].

The sequence SRQDKPLSPAGSSQEAADTPDTRH [YJU2B] had a protein stability index under setting [1] of 5.56 ± 0.14 and a protein stability index under setting [2] of 5.46 ± 0.13.

PQAFPMSRLWDSRLRHYLGSRYDA [DNAAF3]: the protein stability index runs as follows: under setting [1], 2.2 ± 0.47; under setting [2], 2.51 ± 0.35.

Values taken from the supplement of paper PMC10567573.
